Measured values published in paper PMC2646909.

Molecular target: SOD1 G93A (untagged) (human, UniProt P00441 2-154, G94A)
Experiment: competition

Sequence of SOD1 G93A (untagged) (P00441 2-154 G94A): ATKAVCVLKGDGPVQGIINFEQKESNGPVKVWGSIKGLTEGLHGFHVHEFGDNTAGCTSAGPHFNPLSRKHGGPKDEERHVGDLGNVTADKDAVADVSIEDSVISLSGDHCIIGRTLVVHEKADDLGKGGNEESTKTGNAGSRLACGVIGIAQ

## CGGAGCCCAGCCCUCCCCAUGGAGCCAGCUCCCUCU (ssRNA) [control RNA (no AU-rich sequence)]
  binding result: no binding
